Source: patent publication US20130316958A1 (University of Southern California, priority 2010, published 2013)
Non-standard residues stand in square brackets, D forms with d. No end group written: not given here.

Tests used:
[1] = molecular target: T1, Atg3 (Homo sapiens, UniProt Q9NT62); experiment: GST pulldown of KSHV vFLIP α-helix fragments and deletion mutants; type: binding; settings: GST fusions or deletion mutants in HEK293T
T1 construct: GFP (alternative construct GFP-Atg3, not on the same molecule as GST); expressed in transfected cells; host or cells: HEK293T
T1 sequence (Q9NT62 whole entry, the tested form may be a part): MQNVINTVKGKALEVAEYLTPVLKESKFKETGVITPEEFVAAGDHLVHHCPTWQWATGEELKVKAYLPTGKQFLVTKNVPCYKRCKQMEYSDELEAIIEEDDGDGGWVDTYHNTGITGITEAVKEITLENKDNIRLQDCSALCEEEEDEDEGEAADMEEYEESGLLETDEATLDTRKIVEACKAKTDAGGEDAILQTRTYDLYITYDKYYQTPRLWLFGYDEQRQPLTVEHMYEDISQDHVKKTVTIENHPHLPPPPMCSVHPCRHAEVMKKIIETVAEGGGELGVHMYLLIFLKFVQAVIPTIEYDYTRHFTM
Source text: Due to the substantial similarities between DEDI and DED2, Atg3 bound each DED of KSHV vFLIP with a similar affinity. Structural analyses have shown that the DED1 and DED2 of KSHV vFLIP and MCV 159L contain six and five α-helixes, respectively. (Yang et al. (2005) Mol. Cell. 20:939-949); Bagneris et al. (2008) Mol. Cell. 30:620-631). To further define the Atg3 binding sequences, each DED of KSHV vFLIP was divided into small α-helix fragments based on the previous structural analysis and expressed as mammalian GST fusions. Truncated mutant constructs of KSHV-vFLIP and hATG3 were created by subcloning the PCR products of cDNA fragments containing each domain of the associated genes into pcDNA5/FRT/TO. HEK293T cells were transfected with mutant constructs for GST pulldown as described above, followed by immunoblotting with αV5. […] In contrast, vFLIP mutants carrying a loss of 14-3-3σ, IKKαβγ complex, or FADD interaction bound Atg3 and blocked rapamycin-induced autophagy as efficiently as wild-type vFLIP.

[2] = test system: KSHV-infected TREX-BCBL-Vector cells; experiment: GFP-LC3 puncta autophagy assessment after peptide treatment; type: cell-based; settings: 30 or 50 μM peptide, 12 hr
Source text: (§1) The vFLIP α2 (10 aa) and α4 (12 aa) peptides that independently bound Atg3 at high efficiency were fused with the HIV-1 TAT protein transduction domain for intracellular delivery (Gump and Dowdy (2007) Trends Mol. Med. 13:443-448) and tested for their potential effects on autophagy induction. The K-α2 and K-α4 peptides contained KSHV vFLIP aa20-29 and aa128-139 regions, respectively, as retro-inverso versions to circumvent the proteolytic degradation. Mutant peptides K-α2m and K-α4m were also included, which replaced the hydrophobic core residues of the K-α2 (L21F22L23) and K-α4 (F130L-WVY139) peptides with alanines, as well as the C-α2 and C-α4 peptides containing the cFLIPs regions aa19-28 and aa128-139, respectively. At 12 hr post-transfection with GFP-LC3, KSHV-infected TREX-BCBL-Vector and TREX-BCBL-vFLIP cells were incubated with various concentrations of the peptides or rapamycin for an additional 12 hr, followed by an assessment of the GFP-LC3 puncta and cell death. […] Peptide-treated TREX-BCBL-Vector and TREX-BCBL-vFLIP cells were subjected to immunoblotting with αLC3 and aactin.

[3] = test system: TREX-BCBL-Vector cells; experiment: Cell death after overnight peptide incubation; type: cell-based; settings: identical conditions, 30 or 50 μM
Source text: as §1

[4] = test system: ALL cells; experiment: Tumor cell viability by trypan blue exclusion, ALL cells; type: cell-based; settings: BV-173 and SUP-B15, FIG. 5
Experimental: Tumor cells were treated with peptides at various concentrations for 12 hours and their viability measured by trypan blue exclusion, followed by analyses using the Beckman Coulter Z2 Particle Count and Size Analyzer (BC Z2 CS Analyzer). A minimum of 100 cells per sample using triplicate samples was counted per condition per experiment.

[5] = molecular target: T2, Atg3 (human Atg3, E2-like enzyme of the LC3 conjugation system) (human, UniProt Q9NT62 1-314); experiment: binding of Atg3 to the separate DEDs of vFLIP; method not detailed
T2 construct: also called hATG3; GFP-Atg3
T2 sequence (Q9NT62 whole entry): as the sequence (Q9NT62 whole entry, the tested form may be a part) above

[6] = test system: NIH3T3 cells; experiment: GFP-LC3 autophagy with ectopic FLIP expression; type: cell-based; settings: Hank's solution 4 hr or 2 μM rapamycin 3 hr
Experimental: At 12-16 hours post-transfection with GFP-LC3, NIH3T3 cells containing vector or the FLIP gene were treated with Hank's solution for 4 hr or with 2 μM rapamycin for 3 hr. Subsequently, GFP-LC3 was detected using an inverted fluorescence microscope, autophagy was quantified as means (±SD) of the combined results from three independent experiments, and autophagosomes were visualized through scanning electron microscopy. NIH3T3-Vector, NIH3T3-KSHV-vFLIP, and NIH3T3-MCV-159L cells were treated with Hank's solution for 4 hr, followed by immunoblotting with anti-LC3 and anti-βTubulin. At 12-16 hr post-transfection with GFP-LC3, TREX-BCBL-Vector and TREX-BCBL-vFLIP cells were treated with doxycycline for 24 hr, followed by incubation with 2 μM rapamycin for an additional 12 hr. The detection of GFP-LC3 and autophagy levels was performed as described above, vFLIP expression was detected by IB with anti-Flag, and autophagosomes were visualized by scanning EM. TNF-induced apoptosis and NF-κB luciferase assay were performed as previously described (Matta and Chaudhary (2004) Proc. Natl. Acad. Sci. USA 101:9399-9404).
The anti-autophagic properties of vFLIP, as well as the related cFLIP, HSV, and MCV, were evaluated by ectopic expression of HVS, vFLIP, MCV 159L, and the short form of cFLIP (cFLIPs) in NIHI3T3 cells. DNA fragments corresponding to the coding sequences of the KSHV-vFLIP, human cFLIPs, MCV-MC159, and HVS-vFLIP genes were amplified via polymerase chain reaction and subcloned into pcDNA5/FRT/TO between the AflII and BamHI restriction sites or pEF-IRES-puro between the AflII and XbaI sites. Starvation studies were carried out by transfecting cells containing vector or the FLIP gene with GFP-LC3, then 12-16 h post-transfection, treating the cells with Hank's solution for 4 hr or with 2 μM rapamycin for 3 hr. Autophagy was assessed by GFP-LC3 redistribution using an inverted fluorescence microscope, quantifying autophagy as means (±SD) of the combined results from three independent experiments. Autophagosomes were visualized through scanning electron microscopy. […]

[7] = molecular target: T1, Atg3; experiment: Co-immunoprecipitation of FLIP with Atg3 in HEK293T cells; type: binding; settings: endogenously and exogenously expressed Atg3
Experimental: The ability of FLIP to bind to Atg3 was evaluated by co-immunoprecipitation assay. HEK293T cells were transfected with Flag-vFLIP and/or GFP-Atg3 or Flag-vFLIP and/or GST-Atg3, and at 48 hr post-transfection, cells were harvested and lysed in an NP40 buffer supplemented with complete protease inhibitor cocktail (Roche). After pre-clearing with protein A/G agarose beads for 1 hr at 4° C., whole-cell lysates were used for immunoprecipitation with αFlag, αGFP, or GST. Generally, 1-4 μg of the antibody was added to 1 ml of the cell lysate and incubated at 4° C. for 8 to 12 hr. The immunoprecipitates were then washed extensively with a lysis buffer and eluted by boiling them with an SDS loading buffer for 5 min. Following immunoprecipitation, samples were treated to immunoblot using αAtg3 (1:500) (Novus).

[8] = test system: human Atg3 deletion mutants; experiment: GST pulldown with Atg3 deletion mutants; type: binding; settings: GST-Atg3, N-terminal and C-terminal regions
Source text: The overall structure of yeast Atg3 has a unique hammer-like shape with the N-terminal and C-terminal regions discretely responsible for Atg7 and Atg8 (equivalent to mammalian LC3) binding, respectively. (Yamada et al. (2007) J. Biol. Chem. 282:8036-8043). Based on the structure of yeast Atg3, human Atg3 deletion mutants fused with a GST mammalian expression vector were constructed: GST-Atg31-93, GST-Atg3193-268, GST-Atg3268-315, and GST-Atg3193-315-GST-tagged hATG3 and hATG3 mutant genes were cloned into a pcDNA5/FRT/TO derivative encoding an N-terminal GST epitope tag between the BamHI and NotI sites. GST pulldown with Flag-KSHV vFLIP, Flag-cFLIPs, Flag-MCV 159L, or Flag-HVS vFLIP along with GST-Atg3, GST-Atg3 N-terminal region (Nt), or GST-Atg3 C-terminal region (Ct) was performed as described above and was followed by immunoblotting with aFlag or aGST.

[9] = test system: NF-κB; experiment: NF-κB luciferase reporter assay; type: cell-based; settings: NIH3T3 cells, 48 hr post-transfection
Source text: To determine the effects of the interactions of vFLIP with FADD, IKKαβγ, and 14-3-3σ on anti-autophagy activity, NIH3T3 cells stably expressing various vFLIP mutants were constructed: m14-3-3σ, which lacks 14-3-3σ-binding; mTRAF2, which lacks TRAF2-binding (Guasparri et al. (2006) EMBO Rep. 7:114-119); 67AAA and 58AAA, which have reduced NF-κB activation (Matta and Chaudhary (2004) Proc. Natl. Acad. Sci. USA 101:9399-9404); and mFADD, which lacks FADD-binding (Yang et al. (2005) Mol. Cell. 20:939-949). These cells were treated with either cyclohexamide (CHX) alone or CHX and TNF-α for 12 hr or with 2 μM rapamycin for 3 hr. Propidium iodide (PI) staining and flow cytometry analysis were performed to determine apoptosis levels. Alternatively, NIH3T3 cells containing vector, KSHV vFLIP, or its mutants were transfected with an NF-κB-luciferase reporter construct and a control renilla luciferase plasmid, pRL-SV40 (Promega). At 48 hr post-transfection, luciferase activity was measured with a luminometer using a dual luciferase assay kit (Promega) and normalized with renilla luciferase activity to determine transfection efficiency. GFP-LC3 puncta were detected using an inverted fluorescence microscope and the autophagy levels quantified as means (±SD) of the results from three independent experiments.

[10] = molecular target: T2, Atg3 (human Atg3, E2-like enzyme of the …); experiment: co-immunoprecipitation from HEK293T cells

Molecule: EVVLFLLNVF (also: GST fusion) [DED1α2 helix, α2 region of KSHV vFLIP aa 20-29, tested as mammalian GST fusion]
- Atg3 binding (GST pulldown) [1]: individually sufficient for Atg3 binding

Molecule: QTFLHWVYCMEN [DED2 α4 helix]
- Atg3 binding (GST pulldown) [1]: individually sufficient for Atg3 binding

Molecule: RRRQRRKKRGY-G ([dR][dR][dR][dQ][dR][dR][dK][dK][dR]G[dY]G; not fully specified; printed as RRRQRRKKRGY-G) [HIV-1 TAT only, HIV-1 TAT protein transduction domain alone, reference compound]
- autophagy induction (GFP-LC3 puncta) [2]: no increase in autophagy
- cell death (in words) [3]: no increase in autophagy nor cell death

Molecule: RRRQRRKKRGY-G-FVNLAAAVVE [K-α2m]
- autophagy induction (GFP-LC3 puncta) [2]: no increase in autophagy
- cell death (in words) [3]: no increase in autophagy nor cell death

Molecule: RRRQRRKKRGY-G-NEMCAAAHAATQ [K-α4m]
- autophagy induction (GFP-LC3 puncta) [2]: no increase in autophagy
- cell death (in words) [3]: no increase in autophagy nor cell death
- anticancer activity in ALL cell lines [4]: significant anticancer activities

B1: KSHV vFLIP DED2 (other)
chain: FSPYQLTVLHVDGELCARDIRSLIFLSKDTIGSRSTPQTFLHWVYCMENLDLLGPTDVDALMSMLRSLSRVDLQRQVQTLMGLHLSGPSHSQHYRHTP
notes: also called DED2 of KSHV vFLIP
- binding result [5]: binds

B2: KSHV vFLIP DED1 (other)
chain: MATYEVLCEVARKLGTDDREVVLFLLNVFIPQPTLAQLIGALRALKEEGRLTFPLLAECLFRAGRRDLLRDLLHLDPRFLERHLAGTMSY
notes: also called DED1 of KSHV vFLIP
- binding result [5]: binds

B3: MCV 159L (MCV vFLIP) (other)
chain: MSDSKEVPSLPFLRHLLEELDSHEDSLLLFLCHDAAPGCTTVTQALCSLSQQRKLTLAALVEMLYVLQRMDLLKSRFGLSKEGAEQLLGTSFLTRYRKLMVCVGEELDSSELRALRLFACNLNPSLSTALSESSRFVELVLALENVGLVSPSSVSVLADMLRTLRRLDLCQQLVEYEQQEQARYRYCYAASPSLPVRTLRRGHGASEHEQLCMPVQESSDSPELLRTPVQESSSDSPEQTT
notes: also called MCV-MC159; MCV MC159
- suppression of starvation- and rapamycin-induced autophagy [6]: strongly suppressed starvation- and rapamycin-induced autophagy
- interaction with Atg3 (co-immunoprecipitation) [7]: interacted with Atg3 as efficiently as KSHV-vFLIP
- Atg3 region bound (GST pulldown) [8]: Atg3 binding patterns similar to KSHV vFLIP
- NF-κB activation [9]: did not carry out NF-κB activation
- binding result [10]: binds

B4: HVS vFLIP (other)
chain: MDLKTTVLHITDSFTEEEMYCLLFLINGCIPRNCNAVKISDLIIETLSKSTQWDICLTQCLYVLRKIELLLNLFQVTKEDVKQSFFTQLQLETHVLTLVNVNNNLTAKDEKRLCFILDQFFPRNVVASSVILCVFSNMLCEMPVLECLCQLKKCLKQIGRSDLAKTV
notes: also called Flag-HVS vFLIP
- suppression of starvation- and rapamycin-induced autophagy [6]: strongly suppressed starvation- and rapamycin-induced autophagy
- interaction with Atg3 (co-immunoprecipitation) [7]: interacted with Atg3 as efficiently as KSHV-vFLIP
- Atg3 region bound (GST pulldown) [8]: Atg3 binding patterns similar to KSHV vFLIP
- binding result [10]: binds
